# Test results reported in patent US9540654B2, “Synthetic brassica-derived chloroplast transit peptides” (Dow AgroSciences LLC, priority 2012, dated 2017).
# Columns and labels:
# [1] = tested on: Arabidopsis; assay: dgt-28 as a selectable marker with glyphosate selection; format: in vivo, Arabidopsis thaliana; conditions: 26.25-1680 g ae/ha glyphosate applied 7 and 11 DAP
# Method: The use of dgt-28 as a selectable marker for glyphosate selection agent is tested with the Arabidopsis transformed plants described above. Approximately 50 T4 generation Arabidopsis seed (homozygous for dgt-28) are spiked into approximately 5,000 wildtype (sensitive to glyphosate) seed. The seeds are germinated and plantlets are sprayed with a selecting dose of glyphosate. Several treatments of glyphosate are compared; each tray of plants receives either one or two application timings of glyphosate in one of the following treatment schemes: 7 DAP (days after planting), 11 DAP, or 7 followed by 11 DAP. Since all plants also contain a glufosinate resistance gene in the same transformation vector, dgt-28 containing plants selected with glyphosate can be directly compared to DSM-2 or pat containing plants selected with glufosinate.
# Glyphosate treatments are applied with a DeVilbiss™ spray tip as previously described. Transgenic plants containing dgt-28 are identified as “resistant” or “sensitive” 17 DAP. […] Sensitive and resistant plants are counted and the number of glyphosate tolerant plants is found to correlate with the original number of transgenic seed containing the dgt-28 transgene which are planted.
# [2] = tested on: Zea mays B104; assay: Post-emergence glyphosate tolerance of dgt-28 T0 corn (greenhouse); format: in vivo; conditions: T0 dgt-28 corn plants
# Method: Zea mays dgt-28 transformation events (T0) were allowed to acclimate in the greenhouse and were grown until plants had transitioned from tissue culture to greenhouse growing conditions (i.e., 2-4 new, normal looking leaves had emerged from the whorl). Plants were grown at 27° C. under 16 hour light:8 hour dark conditions in the greenhouse. The plants were then treated with commercial formulations of DURANGO DMA™ (containing the herbicide glyphosate) with the addition of 2% w/v ammonium-sulfate. Herbicide applications were made with a track sprayer at a spray volume of 187 L/ha, 50-cm spray height. T0 plants were sprayed with a range of glyphosate from 280-4480 g ae/ha glyphosate, which is capable of significant injury to untransformed corn lines. A lethal dose is defined as the rate that causes >95% injury to the B104 inbred.
# T0 events of dgt-28 linked with TraP4, TraP5, TraP8 and TraP23 were generated by Agrobacterium transformation and were allowed to acclimate under controlled growth chamber conditions until 2-4 new, normal looking leaves had emerged from the whorl. Plants were assigned individual identification numbers and sampled for copy number analyses of both dgt-28 and aad-1. Based on copy number analyses, plants were selected for protein expression analyses. Plants were transplanted into larger pots with new growing media and grown at 27° C. under 16 hour light:8 hour dark conditions in the greenhouse. Remaining plants that were not sampled for protein expression were then treated with commercial formulations of DURANGO DMA™ (glyphosate) with the addition of 2% w/v ammonium-sulfate. Treatments were distributed so that each grouping of plants contained T0 events of varying copy number. Herbicide applications were made with a track sprayer at a spray volume of 187 L/ha, 50-cm spray height. T0 plants were sprayed with a range of glyphosate from 280-4480 g ae/ha glyphosate capable of significant injury to untransformed corn lines. A lethal dose is defined as the rate that causes >95% injury to the B104 inbred. B104 was the genetic background of the transformants.
# [3] = tested on: Zea mays hybrid 4XP811/B104; assay: Glyphosate tolerance of dgt-28 corn under field conditions; format: in vivo; conditions: corn under field conditions through the reproductive growth stages
# Excerpt: Single copy T1 events were sent to a field location to create both hybrid hemizygous and inbred homozygous seed for additional characterization. Hybrid seeds were created by crossing T1 events in the maize transformation line B104 to the inbred line 4XP811 generating hybrid populations segregating 1:1 (hemizygous:null) for the event. The resulting seeds were shipped to 2 separate locations. A total of five single copy events per construct were planted at each location in a randomized complete block design in triplicate. The fields were designed for glyphosate applications to occur at the V4 growth stage and a separate grouping of plants to be applied at the V8 growth stage. The 4XP811/B104 conventional hybrid was used as a negative control.
# Experimental rows were treated with 184 g ae/ha ASSURE II™ (106 g ai/L quizalofop-methyl) to eliminate null segregants. All experimental entries segregated 1:1 (sensitive:resistant) (p=0.05) with respect to the ASSURE II™ application. Selected resistant plants were sampled from each event for quantification of the DGT-28 protein by standard ELISA.
# Quizalofop-methyl resistant plants were treated with the commercial herbicide DURANGO DMA™ (480 g ae/L glyphosate) with the addition of 2.5% w/v ammonium-sulfate at either the V4 or V8 growth stages. […]
# [4] = tested on: rice; assay: Postemergence glyphosate tolerance of dgt-28 rice (T0, T1); format: in vivo, Oryza sativa; conditions: following 560 g ae/ha glyphosate used for selection
# Method: Transplanted rice transformants produced via Agrobacterium transformation were transplanted into media and acclimated to greenhouse conditions. […] Selected T0 events from construct pDAB110828 were treated with 2240 g ae/ha DURANGO DMA™ as previously described and assessed 7 and 14 days after treatment. […] All PCR positive plants were allowed to produce T1 seed for further characterization.
# (§1) T1 resistant plants from each event used in the progeny testing were given unique identifiers and sampled for zygosity analyses of the dgt-28 gene. Zygosity data were used to assign 2 hemizygous and 2 homozygous replicates to each rate of glyphosate applied allowing for a total of 4 replicates per treatment. These plants were compared against wildtype kitaake rice. All plants were sprayed with a track sprayer set at 187 L/ha. The plants were sprayed from a range of 560-2240 g ae/ha DURANGO DMA™. All applications were formulated in water with the addition of 2% w/v ammonium sulfate (AMS). Plants were evaluated at 7 and 14 days after treatment. Plants were assigned an injury rating with respect to overall visual stunting, chlorosis, and necrosis. The T1 generation is segregating, so some variable response is expected due to difference in zygosity.
# [5] = tested on: tobacco (cv. Petit Havana); assay: Postemergence glyphosate tolerance of dgt-28 tobacco (T1, T2); format: in vivo; conditions: tobacco through two generations
# Excerpt: as §1, with “Petite havana tobacco.” for “kitaake rice.”, “560-4480” for “560-2240”
# Rates of DURANGO DMA™ ranging from 420-3360 g ae/ha glyphosate were applied to 2-3 leaf tobacco as previously described.
molecule,measurement,setting,value
DGT-28: EPSP synthase (GENBANK ZP_06917240.1) from Streptomyces sviceus ATCC29083; glyphosate tolerance gene and protein (protein) MRGMPALSLPGSKSITARALFLAAAADGVTTLVRPLRSDDTEGFAEGLVRLGYRVGRTPDTWQVDGRPQGPAVAEADVYCRDGATTARFLPTLAAAGHGTYRFDASPQMRRRPLLPLSRALRDLGVDLRHEEAEGHHPLTVRAAGVEGGEVTLDAGQSSQYLTALLLLGPLTRQGLRIRVTDLVSAPYVEITLAMMRAFGVEVAREGDVFVVPPGGYRATTYAIEPDASTASYFFAAAALTPGAEVTVPGLGTGALQGDLGFVDVLRRMGAEVSVGADATTVRGTGELRGLTANMRDISDTMPTLAAIAPFASAPVRIEDVANTRVKECDRLEACAENLRRLGVRVATGPDWIEIHPGPATGAQVTSYGDHRIVMSFAVTGLRVPGISFDDPGCVRKTFPGFHEAFAELRRGIGS,selection for transgenic Arabidopsis plants with glyphosate,[1],effective selection
same,glyphosate rate up to which tolerance was achieved,[2],up to 4480 g ae/ha
same,glyphosate rate up to which robust tolerance was shown,[3],up to 4480 g ae/ha
same,glyphosate rate up to which tolerance was shown,[4],up to 2240 g ae/ha
same,glyphosate rate up to which robust tolerance was shown,[5],up to 3360 g ae/ha
